Laboratory results reported in patent US20080234471A1.

Columns and labels:
GnGn-peptide [1] = target: GnGn-peptide
GnGn-peptide [2] = target: GnGn-peptide; remark: listed apart in the source

Substance	Specific activity (GnGn-peptide [1])	Km-Value (GnGnF^6-peptide)	Rel. Activity (MM-peptide)	Km-Value (GnGn-peptide [2])
GlcNAc-α1,3-fucosyl transferase isolated from mung bean seedlings (enzyme)	43400 mU/mg			
recombinant GlcNAc-α1,3-fucosyl transferase (enzyme)		130 µM	0%	190 µM
